From publication PMC5601897, “The catalytic subunit of DNA polymerase δ inhibits γTuRC activity and regulates Golgi-derived microtubules” (Nature Communications, 2017)

Biological target: γ-tubulin ring complex (γTuRC), purified (human (endogenous in HEK293T), UniProt P23258 1-451; Q9BSJ2 1-902; Q96CW5 1-907; Q9UGJ1 1-667; Q96RT8 1-1024; Q96RT7 …)
Experiment: cell-based or functional assay

B1: recombinant FLAG-PolD1 (wild type), purified (natural protein, human, UniProt P28340 1-1107, looked up)
chain: MDGKRRPGPGPGVPPKRARGGLWDDDDAPRPSQFEEDLALMEEMEAEHRLQEQEEEELQSVLEGVADGQVPPSAIDPRWLRPTPPALDPQTEPLIFQQLEIDHYVGPAQPVPGGPPPSRGSVPVLRAFGVTDEGFSVCCHIHGFAPYFYTPAPPGFGPEHMGDLQRELNLAISRDSRGGRELTGPAVLAVELCSRESMFGYHGHGPSPFLRITVALPRLVAPARRLLEQGIRVAGLGTPSFAPYEANVDFEIRFMVDTDIVGCNWLELPAGKYALRLKEKATQCQLEADVLWSDVVSHPPEGPWQRIAPLRVLSFDIECAGRKGIFPEPERDPVIQICSLGLRWGEPEPFLRLALTLRPCAPILGAKVQSYEKEEDLLQAWSTFIRIMDPDVITGYNIQNFDLPYLISRAQTLKVQTFPFLGRVAGLCSNIRDSSFQSKQTGRRDTKVVSMVGRVQMDMLQVLLREYKLRSYTLNAVSFHFLGEQKEDVQHSIITDLQNGNDQTRRRLAVYCLKDAYLPLRLLERLMVLVNAVEMARVTGVPLSYLLSRGQQVKVVSQLLRQAMHEGLLMPVVKSEGGEDYTGATVIEPLKGYYDVPIATLDFSSLYPSIMMAHNLCYTTLLRPGTAQKLGLTEDQFIRTPTGDEFVKTSVRKGLLPQILENLLSARKRAKAELAKETDPLRRQVLDGRQLALKVSANSVYGFTGAQVGKLPCLEISQSVTGFGRQMIEKTKQLVESKYTVENGYSTSAKVVYGDTDSVMCRFGVSSVAEAMALGREAADWVSGHFPSPIRLEFEKVYFPYLLISKKRYAGLLFSSRPDAHDRMDCKGLEAVRRDNCPLVANLVTASLRRLLIDRDPEGAVAHAQDVISDLLCNRIDISQLVITKELTRAASDYAGKQAHVELAERMRKRDPGSAPSLGDRVPYVIISAAKGVAAYMKSEDPLFVLEHSLPIDTQYYLEQQLAKPLLRIFEPILGEGRAEAVLLRGDHTRCKTVLTGKVGGLLAFAKRRNCCIGCRTVLSHQGAVCEFCQPRESELYQKEVSHLNALEERFSRLWTQCQRCQGSLHEDVICTSRDCPIFYMRKKVRKDLEDQEQLLRRFGPPGPEAW
Question: For B1, which “IC50 of inhibition of in vitro microtubule nucleation by purified γTuRCs reconstituted with CDK5RAP2(51–200) (28 nM); PolD1 at various concentrations” value is on record?
Answer: 98 nM
